Results as given in publication PMC8017925, “Structural basis for differential recognition of phosphohistidine-containing peptides by 1-pHis and 3-pHis monoclonal antibodies” (Proceedings of the National Academy of Sciences of the …, 2021).

Test system: ACLY pHis peptide
Test: BLI of pHis Fabs with phosphorylated ACLY peptide
Type: binding
Conditions: GpHAGAC motif
Experimental: Next, we turned to further analyze the peptide selectivity using BLI experiments. Nine amino acid peptide sequences from proteins known to undergo histidine phosphorylation were selected and synthesized (SI Appendix, Table S2). The biotinylated peptides ACLY, NM23, SCS, and Common-His were chemically phosphorylated using phosphoramidate (8 h at 23 °C), and affinity-purified using immobilized 1-pHis IgGs or 3-pHis IgGs, as described above. BLI signal intensity was used to assess peptide binding to the Fabs. […]
The binding kinetics of pHis Fabs with the peptides (pTza and pHis) were evaluated with an Octet RED96e (FortéBio). […] The biotinylated pTza peptides or pHis peptides (20 nM) with and without phosphoramidate treatment were coated onto these streptavidin biosensors and analyzed for their binding to varying concentrations of the pHis Fabs with an association time of 120 s and dissociation time of 200 s. […] The data were analyzed using the Octet software (FortéBio) and the rates of association and dissociation were obtained by global fitting data to the 1:1 Langmuir interaction model. […]
1H NMR of ACLYana peptide. A mixture of 5 mM ACLYana peptide and 250 mM phosphoramidate in 20 mM d18-Hepes, pH 8.0, 50 mM NaCl in D2O was incubated at 23 °C and monitored over the course of 29 h. […]

B1: SC44-8: Fab of rabbit 3-pHis-specific monoclonal antibody with proclivity for GpHAGA motif (antibody, V domains shown)
VH: QSVKESGRGLVQPGGSLTLTCTASGFSIDSYGFSWVRQAPGKGLEHIGYLTAGGRAFYASWAKSRSTITRNTNENTVTLKMTSLTAADTATYFCAKLGSGNPVAIWGPGTLVTVSS
VL: QVLTQTPSFTSAAVGGTVTINCQSSQSVWRNKNLAWYQQKPGQPPKRLIYAIATLDSGVPSRFSGSGSGTQFTLTISDVQCDDAATYYCVGHYGSENDAYYAFGGGTEVVVK
For B1, the “BLI signal with ACLY peptide” value was 0.5 nm.
